Measured values published in patent US20240277823A1 (published 2024).

Columns and labels:
6A5 = experiment: BLI; 500 nM antigen
5G10 = experiment: BLI; 500 nM antigen

Kd (6A5): < 1 pM
Kd (5G10): < 1 pM
B1: LA0591 (other)
chain: VNPDQYCPASKKENHNIRIKRTLPPDFQLTEEWLRRLYDIATSASLTEGQIHGICGVCLLQTFQMLAELQEYHSHGPLQGGGYFFNTAPDTDPFDSFRQRYPELDTMLTDAATAYGPAYNTTRLLTLVSAMTMMPQYEWTPSREFTTRSDMHSHIRSLIDSPPGSIWLGLMQRRESDETLRWHALPILRTSQGLIVIQTRVSTMSFELYRLYLTPSTSIVQIINDYLEEADRTLTVLVTIQLEQAYQNLFDFMVSNMNCTGEGENRRGSGGYPTSATVNQCSGGRCALPNW
